B1: 51 (protein, listed as Mycobacterium gilvum)
chain: MARVIAIEEHYAHPGLQPAEALANLRKHPQLARIQDKLEDLGAGRLADMDAAGIDMQVLSHTVPGAEALPAAQAVDVVRQTNDDLAEVIAAHPDRFAGFAALPMRDPQAAATELQRAVGTLGFCGAMINGLIEGRFLDHPDFTPLLSTAADLGVPLYLHPSFPPPQVAQIYFGGLPPVLADLLATAGWGWHAETALHVLRLISTGVFDRLPELRVIVGHMGEMIPFALARIDTVLSPMTELRQPVAQYFQTNVWFTTSGYTTFPPLQCALSTVGIDRLIFSVDYPYTDNASARALLDTAPISPVDREKLAHATVEALLRV
B2: 59 (protein)
chain: MAPSVIDAHAHFLPGSLVTALRSRSDAPDIRTDSNGGESFGIYRTRMPYGRTYDALDVRLARMDELGVDRQILSLPGLFGIDSRPVSQALPLVRAFNDGVADLVRKHPDRFSGIAALPLADLDAAQEEYRRARGDLGLSGLILPGDTFVSVAAAERVRPLFELAATIGGLIFVHPGPLPDETGSAVDAPAPHTDSVVHRRVTVDIQNRMTEVMVTLALTDFLAPYPSVPVQVANLGGSLPFVIERMDHVYALRNPEAPPPSLSLRSLYVDAASLGPRAIALAAEVYGADRVLFGSDYPIFDDGRCLDAVRQTRLSPDARALIAGGNAARMLTQT
modifications: alpha proteobacterium
B3: 52 (protein, listed as Streptomyces sp.)
chain: MAKIIALEEHFSDPAVAKAGAARAQALSPGFAASYSPASGLPYSPSPEVLENLAEKRLADMDAGGITMQVLSGLSAQTVPADVAPALVAGSNDKAAAAVRAHPDRFAAFAALPTAAPEAAVAELDRSVNELGFVGTLIMGRTEGEFLDAPRFEPILARAAALKVPVFLHPGVPPREITDSNYAAGLPTGIGTRLQTAAWGWHQETAVHFLHLVHSGVLDRYPDLQFILGHWGETIPFYLDRVDEALPQRATGLDRSFHEYFRENVYLAPSGMWSQAQLRFCLETFPLERIVFAVDYPFIGNEGAVPFLEKAELPEADKRKIAHENAERLLGL
B4: 54 (protein, listed as Streptomyces sp.)
chain: B3 chain with S75G, V128I, D223G, T234M, F285V
B5: 53 (protein, listed as Granulicella tundricola)
chain: MARTITLEEHFVTDSFLRATGAYDKPAPPWLAQLQPKLLDLGDGRIAAMDEAGIDLQVLSLAALGFDALDAATATPLVHDINDELAAAVRANPTRLAAFASLALKDPQSAARELERAIQKLGFRGVLLDGTTDGLFLDDPRFTPVFEAAVALNVPIYLHPAPPPESVFDTYFTGLPEGVGQMLSIAGWGWHAETALHTLRLITNGVFDRYPTLQLIIGHMGEMLPMALARTSKALSHAARLRQPVAAYFQSNIHLTTSGYFTQPPLRCALDVVGIDRLMFSIDYPFSANTLGRDYLTELEQTLTPEDLAKLIHRNAESLLNLS
B6: 57 (protein)
chain: MAKLICVEEHVLDPAVGAATQSLVRAEAPYLPDWGSRVLDGRHVADRSRPHVIAPSESARKALEMGEPRLADMDAASIDMQVLSYGGFPQLLPAAQAIDLNRAANDKLALAAQAHPARFAGFATLPWQAPEAAARELERAVKQLGLKGALINGRPGDTFLDDARYAPILAAFDELKVPLYVHPGLPLPAVQAPYYGGFERELSARLAMFAWGWHNEAGIQVVRMLLAGVFDRHPRLQLISGHWGEMVPFFLQRLEDSIPQEASGLQRPIVQTYREHVYISPSGMFTLPHFQFIHALMGAQRILYSIDYPYQSLDGARAFIERLPISDTDKALIAHRNAERLLHL
modifications: Collimonas fungivorans
B7: 60 (protein, listed as Catenulispora acidiphila)
chain: MARGFVRTAVVPGFWDAGWRGAGQPGGMRVDVHAHLFPAAYLDLLDDFRQDGGVGTREVRALGGGDGERELRLRLAAMDAVGVDVQLLSTCPQGPYTGDPTAAVEAARCANVALAQTVAQYPERLRALAALPLPHILASVDELNRAMEQDGMLGAAVGTSILGRPLSHPDFEPLFAALNRRKGVLFVHPIGESAGSPLMQASKLDRVIGYAAEVSTAILQLFQAGLTVKYPDIRIIAPHMGGYLPFLIQRLDRHRDWYLPKDAPSAGQLMRGIAYDTANPLPAALRLTAEVVGPERLLLGTDYPFEQGPSLRDHIEYILAAGLPEAQAKMIVDVNAADFLDMRSGAEQPPV
B8: 55 (protein, listed as Serratia sp.)
chain: MAKIICLEEHTLDKALVMASMPAALEQAPFLSDWGKTVTDGNLPDRSRPQIEKNDLINIKGADIGRGRLDDMDVAGITMQVLSVGGFPHLISAAEGVDLNRAANDRLADAVNAHPDRFAAFATLPWAQPDSAEKELERAVKELGFKGALLNGRPSTHFLDHPDYDGLLARFNALGVPLYLHPGLPVRSVQQAYYGGFSDEVTARLSMFGWGWHHEAGIHLLRLILSGAFDKYPNLQVISGHWGEMLPFWLQRLDDSLPQAATGLRRTIAQTFKEQVYVTPSGMLTLPHFQFIYALLGAERIIFSVDYPYQTLDGVKAFIQSLPVPEEAKEAIAFRNAERLLGLTS
B9: 58 (protein)
chain: MARVIALEEHYATTEFLRGPGTWLASRPGIVEPAGDLGDGRIAAMDQAGVDLAVLSLAAPGVEQLDPDDAVRLARDCNDQLAAAVRRYPDRLAGFATVPTSAPDRAADELERAVRGLGFPGAVINGHSRGRYLDDPFFEPVLARAAELQAPIYLHPTIPPAGVIESSYAGFAEPVTFALATVGWGWHINTATHALRMILGGVFDRHPSLQMIIGHMGEATSFMLPRFDATLKPELTGLNHPVSSYLRENFHYTFANFNDHATYANLVAQVGIERVAFSADYPFGSMVDARAFLDGLPLSDDERAAISHRNAEKLLGL
modifications: Mycobacterium colombiense
B10: 56 (protein)
chain: MAKIICLEEHYLDSELGRACMPVALEQAPFLGDWGKTVADGHNPDRSRPQIEKNALINAKGADLGSRRLRDMDEAGITLQILSVGGFPQLAPEDEAVTLNTAANDRLAEAVRNHPDRFAAFATLPWAQPKDAENELVRAVEKLGFKGALLNGRPSSCFLDHPDYDSLLSRFNKLNVPLYLHPGLPLKSVQQAYFTGFSAEVNARLSMFGWGWHHEAGIHLLRLMLSGAFDKYPNMQVISGHWGEMLPFWLQRLDDSLPLAATGLSRTLTRTFQEHVYVTPSGMLTLPHFKFIYELMGAERILFSVDYPYQTLDGVKTFIDSLPVNKAEKEAIAFRNAERLLGITA
modifications: Enterobacter aerogenes

Numbering of substitutions follows the chain as printed.

The nature of one series: 14C assay with IPTG-induced recombinant E. coli cells (14CO2 capture from [14C]-carboxyl-labeled dicamba). As to conditions: IPTG-induced recombinant E. coli cells; [14C]-carboxyl-labeled dicamba; 14CO2 capture.
Take B1: the “Dicamba Decarboxylase Activity” value was “High”.

With B2, the “Dicamba Decarboxylase Activity” value is “No”.

In the case of B3, the “Dicamba Decarboxylase Activity” value was “High”.

B4: the “Dicamba Decarboxylase Activity” value is “High”.

For the molecule B5, the “Dicamba Decarboxylase Activity” value is reported as “High”.

Regarding B6, the “Dicamba Decarboxylase Activity” value is listed as “High”.

In the case of B7, the “Dicamba Decarboxylase Activity” value is reported as “No”.

With B8, the “Dicamba Decarboxylase Activity” value is listed as “High”.

Take B9: the “Dicamba Decarboxylase Activity” value is given as “High”.

Turning to B10, the “Dicamba Decarboxylase Activity” value was “High”.

The same series, now with this note: dicamba decarboxylation activity of the protein of the given SEQ ID NO.
On to B1, for which the “Enzymatic Detection level” value is “High”.

Consider B2, for which the “Enzymatic Detection level” value is “No”.

Turning to B3, the “Enzymatic Detection level” value is recorded as “High”.

B4: the “Enzymatic Detection level” value was “High”.

B5: the “Enzymatic Detection level” value is “High”.

As to B6, the “Enzymatic Detection level” value is “High”.

B7: the “Enzymatic Detection level” value is “No”.

As for B8, the “Enzymatic Detection level” value was “High”.

B9: the “Enzymatic Detection level” value was “High”.

For the molecule B10, the “Enzymatic Detection level” value is recorded as “High”.
